The record followed here is US20100136710A1.

The target in this test is 3′-end processing factors. Nature of the test: immunoprecipitation under standard salt conditions.

Take human tRNA splicing endonuclease: the percent of the 3′-end processing factors associated is < 1%.
